{
  "source": "patent US20050120396",
  "proteins": {"B1": {"name": "purified mouse MEKK1 (protein)", "chain": "MVTAVPAVFSKLVTMLNASGSTHFTRMRRRLMAIADEVEIAEVIQLGVEDTVDGHQDSLQAVAPTSCLENSSLEHTVHREKTGKGLSATRLSASSEDISDRLAGVSVGLPSSTTTEQPKPAVQTKGRPHSQCLNSSPLSHAQLMFPAPSAPCSSAPSVPDISKHRPQAFVPCKIPSASPQTQRKFSLQFQRNCSEHRDSDQLSPVFTQSRPPPSSNIHRPKPSRPVPGSTSKLGDATKSSMTLDLGSASRCDDSFGGGGNSGNAVIPSDETVFTPVEDKCRLDVNTELNSSIEDLLEASMPSSDTTVTFKSEVAVLSPEKAENDDTYKDDVNHNQKCKEKMEAEEEEALAIAMAMSASQDALPIVPQLQVENGEDIIIIQQDTPETLPGHTKAKQPYREDAEWLKGQQIGLGAFSSCYQAQDVGTGTLMAVKQVTYVRNTSSEQEEVVEALREEIRMMGHLNHPNIIRMLGATCEKSNYNLFIEWMAGGSVAHLLSKYGAFKESVVINYTEQLLRGLSYLHENQIIHRDVKGANLLIDSTGQRLRIADFGAAARLASKGTGAGEFQGQLLGTIAFMAPEVLRGQQYGRSCDVWSVGCAIIEMACAKPPWNAEKHSNHLALIFKIASATTAPSIPSHLSPGLRDVAVRCLELQPQDRPPSRELLKHPVFRTTW"}, "B2": {"name": "His-tagged hMEKK1 (polyhistidine-hMEKK1 fusion) (protein)", "chain": "HHHHHHMENKETLKGLHKMDDRPEERMIREKLKATCMPAWKHEWLERRNRRGPVVVKPIPVKGDGSEMNHLAAESPGEVQASAASPASKGRRSPSPGNSPSGRTVKSESPGVRRKRVSPVPFQSGRITPPRRAPSPDGFSPYSPEETNRRVNKVMRARLYLLQQIGPNSFLIGGDSPDNKYRVFIGPQNCSCARGTFCIHLLFVMLRVFQLEPSDPMLWRKTLKNFEVESLFQKYHSRRSSRIKAPSRNTIQKFVSRMSNSHTLSSSSTSTSSSENSIKDEEEQMCPICLLGMLDEESLTVCEDGCRNKLHHHCMSIWAEECRRNREPLICPLCRSKWRSHDFYSHELSSPVDSPSSLRAAQQQTVQQQPLAGSRRNQESNFNLTHYGTQQIPPAYKDLAEPWIQVFGMELVGCLFSRNWNVREMALRRLSHDVSGALLLANGESTGNSGGSSGSSPSGGATSGSSQTSISGDVVEACCSVLSMVCADPVYKVYVAALKTLRAMLVYTPCHSLAERIKLQRLLQPVVDTILVKCADANSRTSQLSISTLLELCKGQAGELAVGREILKAGSIGIGGVDYVLNCILGNQTESNNWQELLGRLCLIDRLLLEFPAEFYPHIVSTDVSQAEPVEIRYKKLLSLLTFALQSIDNSHSMVGKLSRRIYLSSARMVTTVPHVFSKLLEMLSVSSSTHFTRMRRRLMAIADEVEIAEAIQLGVEDTLDGQQDSFLQASVPNNYLETTENSSPECTIHLEKTGKGLCATKLSASSEDISERLASISVGPSSSTTTTTTTTEQPKPMVQTKGRPHSQCLNSSPLSHHSQLMFPALSTPSSSTPSVPAGTATDVSKHRLQGFIPCRIPSASPQTQRKFSLQFHRNCPENKDSDKLSPVFTQSRPLPSSNIHRPKPSRPTPGNTSKQGDPSKNSMTLDLNSSSKCDDSFGCSSNSSNAVIPSDETVFTPVEEKCRLDVNTELNSSIEDLLEASMPSSDTTVTFKSEVAVLSPEKAENDDTYKDDVNHNQKCKEKMEAEEEEALAIAMAMSASQDALPIVPQLQVENGEDIIIIQQDTPETLPGHTKAKQPYREDTEWLKGQQIGLGAFSSCYQAQDVGTGTLMAVKQVTYVRNTSSEQEEVVEALREEIRMMSHLNHPNIIRMLGATCEKSNYNLFIEWMAGGSVAHLLSKYGAFKESVVINYTEQLLRGLSYLHENQIIHRDVKGANLLIDSTGQRLRIADFGAAARLASKGTGAGEFQGQLLGTIAFMAPEVLRGQQYGRSCDVWSVGCAIIEMACAKPPWNAEKHSNHLALIFKIASATTAPSIPSHLSPGLRDVALRCLELQPQDRPPSRELLKHPVFRTTW"}},
  "target": "GST-MKK4 fusion protein [GST: P08515]",
  "sequence (P08515 whole entry, looked up, the tested form may be a part)": "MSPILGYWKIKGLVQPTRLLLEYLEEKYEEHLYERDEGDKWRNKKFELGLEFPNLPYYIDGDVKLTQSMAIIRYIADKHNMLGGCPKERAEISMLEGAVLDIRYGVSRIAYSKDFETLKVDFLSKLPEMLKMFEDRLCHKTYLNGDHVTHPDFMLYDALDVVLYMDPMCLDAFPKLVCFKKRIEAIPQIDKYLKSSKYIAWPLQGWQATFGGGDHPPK",
  "data": [
    {"protein": "B1", "values": [
      {"measurement": "phosphorylation of GST-MKK4 (32P incorporation in kinase reaction, SDS-PAGE and imaging)", "value": "The ability of extracts containing his-tagged hMEKK1 to phosphorylate GST-MKK4 was comparable to the activity of purified mouse MEKK1"}
    ]},
    {"protein": "B2", "values": [
      {"measurement": "phosphorylation of GST-MKK4 (32P incorporation in kinase reaction, SDS-PAGE and imaging)", "value": "The ability of extracts containing his-tagged hMEKK1 to phosphorylate GST-MKK4 was comparable to the activity of purified mouse MEKK1, and significantly above the background levels seen with control extracts"}
    ]}
  ]
}
